# According to the Human Domainome abundance scans (Beltran et al. 2025):
# ± gives the uncertainty stated by the source.
# B1: Gamma-crystallin S, residues 96 to 176; numbered along this chain, P22914 (parent)
# chain: IQIFEKGDFSGQMYETTEDCPSIMEQFHMREIHSCKVLEGVWIFYELPNYRGRQYLLDKKEYRKPIDWGAASPAVQSFRRI
# Variants of: B1
# Test: abundance fitness (aPCA) (normalised: wild type 0, dead -1); higher = more abundant; growth selection in yeast, the domain comes from the species named
# Details: Homo sapiens
row,Variant,abundance fitness
1,IQIFEKGDFSGQMYETTEDCPSIMEQFHMREIHSCKVLEGVWIFYESPNYRGRQYLLDKKEYRKPIDWGAASPAVQSFRRI [L47S],-0.056 ± 0.073
2,IQIFEKGDFSGQMYETTEDCPSIMEQFHMREIHSCKVLEGVWIFYETPNYRGRQYLLDKKEYRKPIDWGAASPAVQSFRRI [L47T],-0.285 ± 0.1
3,IQIFEKGDFSGQMYETTEDCPSIMEQFHMREIHSCKVLEGVWIFYEVPNYRGRQYLLDKKEYRKPIDWGAASPAVQSFRRI [L47V],-0.667 ± 0.071
4,IQIFEKGDFSGQMYETTEDCPSIMEQFHMREIHSCKVLEGVWIFYEWPNYRGRQYLLDKKEYRKPIDWGAASPAVQSFRRI [L47W],-0.078 ± 0.049
5,IQIFEKGDFSGQMYETTEDCPSIMEQFHMREIHSCKVLEGVWIFYEYPNYRGRQYLLDKKEYRKPIDWGAASPAVQSFRRI [L47Y],0.019 ± 0.15
6,IQIFEKGDFSGQMYETTEDCPSIMEQFHMREIHSCKVLEGVWIFYELANYRGRQYLLDKKEYRKPIDWGAASPAVQSFRRI [P48A],-0.027 ± 0.062
7,IQIFEKGDFSGQMYETTEDCPSIMEQFHMREIHSCKVLEGVWIFYELCNYRGRQYLLDKKEYRKPIDWGAASPAVQSFRRI [P48C],-0.129 ± 0.13
8,IQIFEKGDFSGQMYETTEDCPSIMEQFHMREIHSCKVLEGVWIFYELDNYRGRQYLLDKKEYRKPIDWGAASPAVQSFRRI [P48D],-0.038 ± 0.12
9,IQIFEKGDFSGQMYETTEDCPSIMEQFHMREIHSCKVLEGVWIFYELENYRGRQYLLDKKEYRKPIDWGAASPAVQSFRRI [P48E],-0.068 ± 0.089
10,IQIFEKGDFSGQMYETTEDCPSIMEQFHMREIHSCKVLEGVWIFYELFNYRGRQYLLDKKEYRKPIDWGAASPAVQSFRRI [P48F],-0.388 ± 0.17
11,IQIFEKGDFSGQMYETTEDCPSIMEQFHMREIHSCKVLEGVWIFYELGNYRGRQYLLDKKEYRKPIDWGAASPAVQSFRRI [P48G],-0.147 ± 0.058
12,IQIFEKGDFSGQMYETTEDCPSIMEQFHMREIHSCKVLEGVWIFYELHNYRGRQYLLDKKEYRKPIDWGAASPAVQSFRRI [P48H],-0.236 ± 0.14
13,IQIFEKGDFSGQMYETTEDCPSIMEQFHMREIHSCKVLEGVWIFYELINYRGRQYLLDKKEYRKPIDWGAASPAVQSFRRI [P48I],-0.23 ± 0.092
14,IQIFEKGDFSGQMYETTEDCPSIMEQFHMREIHSCKVLEGVWIFYELKNYRGRQYLLDKKEYRKPIDWGAASPAVQSFRRI [P48K],0.006 ± 0.089
15,IQIFEKGDFSGQMYETTEDCPSIMEQFHMREIHSCKVLEGVWIFYELLNYRGRQYLLDKKEYRKPIDWGAASPAVQSFRRI [P48L],-0.32 ± 0.056
16,IQIFEKGDFSGQMYETTEDCPSIMEQFHMREIHSCKVLEGVWIFYELMNYRGRQYLLDKKEYRKPIDWGAASPAVQSFRRI [P48M],-0.193 ± 0.099
17,IQIFEKGDFSGQMYETTEDCPSIMEQFHMREIHSCKVLEGVWIFYELNNYRGRQYLLDKKEYRKPIDWGAASPAVQSFRRI [P48N],-0.096 ± 0.17

row,Variant,abundance fitness
1,IQIFEKGDFSGQMYETTEDCPSIMEQFHMREIHSCKVLEGVWIFYELQNYRGRQYLLDKKEYRKPIDWGAASPAVQSFRRI [P48Q],-0.011 ± 0.097
2,IQIFEKGDFSGQMYETTEDCPSIMEQFHMREIHSCKVLEGVWIFYELRNYRGRQYLLDKKEYRKPIDWGAASPAVQSFRRI [P48R],-0.067 ± 0.045
3,IQIFEKGDFSGQMYETTEDCPSIMEQFHMREIHSCKVLEGVWIFYELSNYRGRQYLLDKKEYRKPIDWGAASPAVQSFRRI [P48S],-0.1 ± 0.066
4,IQIFEKGDFSGQMYETTEDCPSIMEQFHMREIHSCKVLEGVWIFYELTNYRGRQYLLDKKEYRKPIDWGAASPAVQSFRRI [P48T],0.002 ± 0.081
5,IQIFEKGDFSGQMYETTEDCPSIMEQFHMREIHSCKVLEGVWIFYELVNYRGRQYLLDKKEYRKPIDWGAASPAVQSFRRI [P48V],-0.104 ± 0.049
6,IQIFEKGDFSGQMYETTEDCPSIMEQFHMREIHSCKVLEGVWIFYELWNYRGRQYLLDKKEYRKPIDWGAASPAVQSFRRI [P48W],-0.712 ± 0.12
7,IQIFEKGDFSGQMYETTEDCPSIMEQFHMREIHSCKVLEGVWIFYELYNYRGRQYLLDKKEYRKPIDWGAASPAVQSFRRI [P48Y],-0.23 ± 0.12
8,IQIFEKGDFSGQMYETTEDCPSIMEQFHMREIHSCKVLEGVWIFYELPAYRGRQYLLDKKEYRKPIDWGAASPAVQSFRRI [N49A],-0.018 ± 0.029
9,IQIFEKGDFSGQMYETTEDCPSIMEQFHMREIHSCKVLEGVWIFYELPCYRGRQYLLDKKEYRKPIDWGAASPAVQSFRRI [N49C],-0.078 ± 0.049
10,IQIFEKGDFSGQMYETTEDCPSIMEQFHMREIHSCKVLEGVWIFYELPDYRGRQYLLDKKEYRKPIDWGAASPAVQSFRRI [N49D],0.004 ± 0.047
11,IQIFEKGDFSGQMYETTEDCPSIMEQFHMREIHSCKVLEGVWIFYELPEYRGRQYLLDKKEYRKPIDWGAASPAVQSFRRI [N49E],0.021 ± 0.033
12,IQIFEKGDFSGQMYETTEDCPSIMEQFHMREIHSCKVLEGVWIFYELPFYRGRQYLLDKKEYRKPIDWGAASPAVQSFRRI [N49F],-0.009 ± 0.052
13,IQIFEKGDFSGQMYETTEDCPSIMEQFHMREIHSCKVLEGVWIFYELPGYRGRQYLLDKKEYRKPIDWGAASPAVQSFRRI [N49G],0.011 ± 0.023
14,IQIFEKGDFSGQMYETTEDCPSIMEQFHMREIHSCKVLEGVWIFYELPHYRGRQYLLDKKEYRKPIDWGAASPAVQSFRRI [N49H],-0.004 ± 0.057
15,IQIFEKGDFSGQMYETTEDCPSIMEQFHMREIHSCKVLEGVWIFYELPKYRGRQYLLDKKEYRKPIDWGAASPAVQSFRRI [N49K],-0.04 ± 0.045
16,IQIFEKGDFSGQMYETTEDCPSIMEQFHMREIHSCKVLEGVWIFYELPLYRGRQYLLDKKEYRKPIDWGAASPAVQSFRRI [N49L],-0.063 ± 0.028
17,IQIFEKGDFSGQMYETTEDCPSIMEQFHMREIHSCKVLEGVWIFYELPMYRGRQYLLDKKEYRKPIDWGAASPAVQSFRRI [N49M],-0.001 ± 0.04
